Assay results taken from patent US4797472A, “New peptide derivatives” (KabiVitrum AB, priority 1986, dated 1989).
Square brackets hold non-standard residues; d marks the D form. Peptide text beside a SMILES is read from it. * marks the point of attachment. pNA = O=[N+]([O-])c1ccc(N*)cc1; Cbz = O=C(OCc1ccccc1)*; Ms = CS(=O)(=O)*

Experiments:
FXa human = target: T1, FXa human (Homo sapiens, UniProt P00742); assay: Determination of kinetic constants for FXa human (plasma activated with RVV+CaCl2); type: biochemical; settings: for Km: substrate 0.1-0.7 mmol/l, trisbuffer pH 7.0, I=0.25, polybrene, 37° C.
T1 construct: from tissue; host or cells: human plasma
Protocol: The kinetic data for the substrates are determined by measuring the initial velocity of hydrolysis (Vi) at different substrate concentrations (Si) and at constant enzyme concentrations (Eo). The binding constant (Km) and the maximum velocity (Vmax) are obtained in known manner from Lineweaver-Burk-plot, then the Kcat is calculated (Hemker H. C. loc. cit.)
The substrates in concentrations between 0.1-0.7 mmol/l (Si) are mixed with FXa human plasma and treated according to the method as described by Aurell; L., et al. (Perspectives in Hemostatis, Ed. Fareed J. et al, New York, Pergamon Press 1981, p. 382-388).
10 μl test plasma, control or standard and 200 μl trisbuffer solution (0.05 mol/l tris, pH 7.0, I=0.25 (NaCl)), polybrene (0.1 g/l) are mixed and incubated at 37° C. for 2-4 minutes. 200 μl substrate (37° C.) in concentrations between 0.1-0.7 mmol/l dissolved in trisbuffer solution prepared according to the above are added. The mixture is well stirred and within 30 seconds 200 μl RVV+CaCl2 (20°-25° C.) are added and the mixture is stirred. The absorbance change is measured at once in a spectrophotometer at 405 nm and 37° C.

Thrombin bovine = target: T2, Thrombin bovine (Bos taurus, UniProt P00735); assay: Determination of thrombin sensitivity; type: biochemical; settings: for Km: substrate 0.1-0.4 mmol/l
T2 construct: Thrombin bovine (KabiVitrum) with a constant concentration E0 =1.3 nmol/l; purchased KabiVitrum

FXa bovine = FXa bovine (Bos taurus, UniProt P00743); assay: Determination of the kinetic constants for FXa bovine (chromogenic/fluorogenic substrate hydrolysis)
Protocol: (§1) Enzymes and substrates are mixed in a buffer solution at -37° C. The absorbance change per minute is measured at 405 nm in a spectrophotometer (pNA-substrate) or in a spectrofluorometer at excitation wavelength 380 nm and emission wavelength 440 nm (AMC-substrate).
(§2) FXa bovine (KabiVitrum) with a constant enzyme concentration
E0 =4 nmol/l (pNA-substrate)
E0 =2 nmol/l (AMC-substrate)
(§3) and the substrate in concentrations between 0.01-0.4 mmol/l (Si) are mixed in a trisbuffer solution 0.05 mol/l, pH=8.3, I=0.25 (NaCl) at 37° C. Absorbance change per minute is measured at 405 nm in a spectrophotometer for pNA-substrate and in a spectrofluorometer at emission wavelength 440 nm for AMC-substrate, respectively.

[1] = substrate: CC(C)(C)OC(=O)N[C@H](CCCNC(=N)N)C(=O)NCC(=O)N[C@@H](CCCNC(=N)N)C(=O)Nc1ccc([N+](=O)[O-])cc1; assay: purified protein, by the assay type; settings: other: FXa bovine E0=4 nmol/l (pNA-substrate) or 2 nmol/l (AMC-substrate), substrate 0.01-0.4 mmol/l, trisbuffer 0.05 mol/l, pH 8.3, I=0.25, 37° C.
Protocol: as §1, §2
E0 =4 nmol/l (pNA-substrate)
E0 =2 nmol/l (AMC-substrate)
as §3

[2] = substrate: CC(C)C[C@@H](NS(C)(=O)=O)C(=O)NCC(=O)N[C@@H](CCCNC(=N)N)C(=O)Nc1ccc([N+](=O)[O-])cc1; assay: purified protein, by the assay type; settings: other: FXa bovine E0=4 nmol/l (pNA-substrate) or 2 nmol/l (AMC-substrate), substrate 0.01-0.4 mmol/l, trisbuffer 0.05 mol/l, pH 8.3, I=0.25, 37° C.
Protocol: as §1, §2
E0 =4 nmol/l (pNA-substrate)
E0 =2 nmol/l (AMC-substrate)
as §3

[3] = substrate: CCOC(=O)N[C@H](CCCNC(=N)N)C(=O)NCC(=O)N[C@@H](CCCNC(=N)N)C(=O)Nc1ccc([N+](=O)[O-])cc1; assay: purified protein, by the assay type; settings: other: FXa bovine E0=4 nmol/l (pNA-substrate) or 2 nmol/l (AMC-substrate), substrate 0.01-0.4 mmol/l, trisbuffer 0.05 mol/l, pH 8.3, I=0.25, 37° C.
Protocol: as §1, §2
E0 =4 nmol/l (pNA-substrate)
E0 =2 nmol/l (AMC-substrate)
as §3

[4] = substrate: CCS(=O)(=O)N[C@H](CCCNC(=N)N)C(=O)NCC(=O)N[C@@H](CCCNC(=N)N)C(=O)Nc1ccc([N+](=O)[O-])cc1; assay: purified protein, by the assay type; settings: other: FXa bovine E0=4 nmol/l (pNA-substrate) or 2 nmol/l (AMC-substrate), substrate 0.01-0.4 mmol/l, trisbuffer 0.05 mol/l, pH 8.3, I=0.25, 37° C.
Protocol: as §1, §2
E0 =4 nmol/l (pNA-substrate)
E0 =2 nmol/l (AMC-substrate)
as §3

[5] = substrate: CN(CC(=O)N[C@@H](CCCNC(=N)N)C(=O)Nc1ccc([N+](=O)[O-])cc1)C(=O)[C@@H](CCCNC(=N)N)NC(=O)OCc1ccccc1; assay: purified protein, by the assay type; settings: other: FXa bovine E0=4 nmol/l (pNA-substrate) or 2 nmol/l (AMC-substrate), substrate 0.01-0.4 mmol/l, trisbuffer 0.05 mol/l, pH 8.3, I=0.25, 37° C.
Protocol: as §1, §2
E0 =4 nmol/l (pNA-substrate)
E0 =2 nmol/l (AMC-substrate)
as §3

[6] = substrate: COc1ccc(COC(=O)N[C@H](CCCNC(=N)N)C(=O)NCC(=O)N[C@@H](CCCNC(=N)N)C(=O)Nc2ccc([N+](=O)[O-])cc2)cc1; assay: purified protein, by the assay type; settings: other: FXa bovine E0=4 nmol/l (pNA-substrate) or 2 nmol/l (AMC-substrate), substrate 0.01-0.4 mmol/l, trisbuffer 0.05 mol/l, pH 8.3, I=0.25, 37° C.
Protocol: as §1, §2
E0 =4 nmol/l (pNA-substrate)
E0 =2 nmol/l (AMC-substrate)
as §3

[7] = substrate: COc1ccc(S(=O)(=O)N[C@H](CCCNC(=N)N)C(=O)NCC(=O)N[C@@H](CCCNC(=N)N)C(=O)Nc2ccc([N+](=O)[O-])cc2)cc1; assay: purified protein, by the assay type; settings: other: FXa bovine E0=4 nmol/l (pNA-substrate) or 2 nmol/l (AMC-substrate), substrate 0.01-0.4 mmol/l, trisbuffer 0.05 mol/l, pH 8.3, I=0.25, 37° C.
Protocol: as §1, §2
E0 =4 nmol/l (pNA-substrate)
E0 =2 nmol/l (AMC-substrate)
as §3

[8] = substrate: CS(=O)(=O)N[C@H](CCCNC(=N)N)C(=O)NCC(=O)N[C@@H](CCCNC(=N)N)C(=O)Nc1ccc([N+](=O)[O-])cc1; assay: purified protein, by the assay type; settings: other: FXa bovine E0=4 nmol/l (pNA-substrate) or 2 nmol/l (AMC-substrate), substrate 0.01-0.4 mmol/l, trisbuffer 0.05 mol/l, pH 8.3, I=0.25, 37° C.
Protocol: as §1, §2
E0 =4 nmol/l (pNA-substrate)
E0 =2 nmol/l (AMC-substrate)
as §3

[9] = substrate: Cc1cc(=O)oc2cc(NC(=O)[C@H](CCCNC(=N)N)NC(=O)CNC(=O)[C@@H](CCCNC(=N)N)NC(=O)OCc3ccccc3)ccc12; assay: purified protein, by the assay type; settings: other: FXa bovine E0=4 nmol/l (pNA-substrate) or 2 nmol/l (AMC-substrate), substrate 0.01-0.4 mmol/l, trisbuffer 0.05 mol/l, pH 8.3, I=0.25, 37° C.
Protocol: as §1, §2
E0 =4 nmol/l (pNA-substrate)
E0 =2 nmol/l (AMC-substrate)
as §3

[10] = substrate: Cc1ccc(S(=O)(=O)N[C@H](CCCNC(=N)N)C(=O)NCC(=O)N[C@@H](CCCNC(=N)N)C(=O)Nc2ccc([N+](=O)[O-])cc2)cc1; assay: purified protein, by the assay type; settings: other: FXa bovine E0=4 nmol/l (pNA-substrate) or 2 nmol/l (AMC-substrate), substrate 0.01-0.4 mmol/l, trisbuffer 0.05 mol/l, pH 8.3, I=0.25, 37° C.
Protocol: as §1, §2
E0 =4 nmol/l (pNA-substrate)
E0 =2 nmol/l (AMC-substrate)
as §3

[11] = substrate: N=C(N)NCCC[C@H](NC(=O)CNC(=O)[C@@H](CCCNC(=N)N)NC(=O)OCc1ccc([N+](=O)[O-])cc1)C(=O)Nc1ccc([N+](=O)[O-])cc1; assay: purified protein, by the assay type; settings: other: FXa bovine E0=4 nmol/l (pNA-substrate) or 2 nmol/l (AMC-substrate), substrate 0.01-0.4 mmol/l, trisbuffer 0.05 mol/l, pH 8.3, I=0.25, 37° C.
Protocol: as §1, §2
E0 =4 nmol/l (pNA-substrate)
E0 =2 nmol/l (AMC-substrate)
as §3

[12] = substrate: N=C(N)NCCC[C@H](NC(=O)CNC(=O)[C@@H](CCCNC(=N)N)NC(=O)OCc1ccccc1)C(=O)Nc1ccc([N+](=O)[O-])cc1; assay: purified protein, by the assay type; settings: other: FXa bovine E0=4 nmol/l (pNA-substrate) or 2 nmol/l (AMC-substrate), substrate 0.01-0.4 mmol/l, trisbuffer 0.05 mol/l, pH 8.3, I=0.25, 37° C.
Protocol: as §1, §2
E0 =4 nmol/l (pNA-substrate)
E0 =2 nmol/l (AMC-substrate)
as §3

[13] = substrate: N=C(N)NCCC[C@H](NC(=O)CNC(=O)[C@@H](CCCNC(=N)N)NS(=O)(=O)Cc1ccccc1)C(=O)Nc1ccc([N+](=O)[O-])cc1; assay: purified protein, by the assay type; settings: other: FXa bovine E0=4 nmol/l (pNA-substrate) or 2 nmol/l (AMC-substrate), substrate 0.01-0.4 mmol/l, trisbuffer 0.05 mol/l, pH 8.3, I=0.25, 37° C.
Protocol: as §1, §2
E0 =4 nmol/l (pNA-substrate)
E0 =2 nmol/l (AMC-substrate)
as §3

[14] = substrate: N=C(N)NCCC[C@H](NC(=O)CNC(=O)[C@@H](CCCNC(=N)N)NS(=O)(=O)c1ccc(Cl)cc1)C(=O)Nc1ccc([N+](=O)[O-])cc1; assay: purified protein, by the assay type; settings: other: FXa bovine E0=4 nmol/l (pNA-substrate) or 2 nmol/l (AMC-substrate), substrate 0.01-0.4 mmol/l, trisbuffer 0.05 mol/l, pH 8.3, I=0.25, 37° C.
Protocol: as §1, §2
E0 =4 nmol/l (pNA-substrate)
E0 =2 nmol/l (AMC-substrate)
as §3

[15] = substrate: N=C(N)NCCC[C@H](NC(=O)CNC(=O)[C@@H](CCCNC(=N)N)NS(=O)(=O)c1ccc([N+](=O)[O-])cc1)C(=O)Nc1ccc([N+](=O)[O-])cc1; assay: purified protein, by the assay type; settings: other: FXa bovine E0=4 nmol/l (pNA-substrate) or 2 nmol/l (AMC-substrate), substrate 0.01-0.4 mmol/l, trisbuffer 0.05 mol/l, pH 8.3, I=0.25, 37° C.
Protocol: as §1, §2
E0 =4 nmol/l (pNA-substrate)
E0 =2 nmol/l (AMC-substrate)
as §3

[16] = substrate: N=C(N)NCCC[C@H](NC(=O)CNC(=O)[C@@H](CCCNC(=N)N)NS(=O)(=O)c1ccc2ccccc2c1)C(=O)Nc1ccc([N+](=O)[O-])cc1; assay: purified protein, by the assay type; settings: other: FXa bovine E0=4 nmol/l (pNA-substrate) or 2 nmol/l (AMC-substrate), substrate 0.01-0.4 mmol/l, trisbuffer 0.05 mol/l, pH 8.3, I=0.25, 37° C.
Protocol: as §1, §2
E0 =4 nmol/l (pNA-substrate)
E0 =2 nmol/l (AMC-substrate)
as §3

[17] = substrate: N=C(N)NCCC[C@H](NC(=O)CNC(=O)[C@@H](CCCNC(=N)N)NS(=O)(=O)c1ccccc1)C(=O)Nc1ccc([N+](=O)[O-])cc1; assay: purified protein, by the assay type; settings: other: FXa bovine E0=4 nmol/l (pNA-substrate) or 2 nmol/l (AMC-substrate), substrate 0.01-0.4 mmol/l, trisbuffer 0.05 mol/l, pH 8.3, I=0.25, 37° C.
Protocol: as §1, §2
E0 =4 nmol/l (pNA-substrate)
E0 =2 nmol/l (AMC-substrate)
as §3

[18] = Thrombin bovine E0=1.3 nmol/l, trisbuffer pH 8.3, I=0.25, 37° C.
[19] = trisbuffer pH 7.0, I=0.25, 37° C.

Sequence of FXa bovine (P00743 41-180 partner limits assumed, one chain of several): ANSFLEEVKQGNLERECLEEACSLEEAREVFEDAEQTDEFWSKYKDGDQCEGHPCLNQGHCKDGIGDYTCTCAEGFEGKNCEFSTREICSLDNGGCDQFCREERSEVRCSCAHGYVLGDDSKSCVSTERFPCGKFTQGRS
T1 sequence (P00742 235-488 limits assumed): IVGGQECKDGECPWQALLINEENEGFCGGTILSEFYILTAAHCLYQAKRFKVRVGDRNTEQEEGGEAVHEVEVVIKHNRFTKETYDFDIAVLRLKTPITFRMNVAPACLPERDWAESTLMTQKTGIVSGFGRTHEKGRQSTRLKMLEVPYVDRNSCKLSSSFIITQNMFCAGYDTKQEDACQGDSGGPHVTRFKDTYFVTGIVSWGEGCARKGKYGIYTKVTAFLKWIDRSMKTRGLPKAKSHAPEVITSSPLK
T1 sequence (P00742 41-179 partner limits assumed): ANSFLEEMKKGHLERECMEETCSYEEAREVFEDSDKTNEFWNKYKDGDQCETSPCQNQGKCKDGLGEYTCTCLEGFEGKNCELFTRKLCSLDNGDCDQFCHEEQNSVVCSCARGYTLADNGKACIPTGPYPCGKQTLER

## CCS(=O)(=O)N[C@H](CCCNC(=N)N)C(=O)NCC(=O)N[C@@H](CCCNC(=N)N)C(=O)Nc1ccc([N+](=O)[O-])cc1 [Example 4, N^α --Ets--D--Arg--Gly--Arg--pNA.2HCl]
FXa human
  Km: 340 µM
Thrombin bovine; [18]
  Km: 410 µM

## N=C(N)NCCC[C@H](NC(=O)CNC(=O)[C@@H](CCCNC(=N)N)NS(=O)(=O)Cc1ccccc1)C(=O)Nc1ccc([N+](=O)[O-])cc1 [Example 16, N^α --Bzls--D--Arg--Gly--Arg--pNA.2HCl]
FXa human
  Km: 50 µM
Thrombin bovine; [18]
  Km: 160 µM

## N=C(N)NCCC[C@H](NC(=O)CNC(=O)[C@@H](CCCNC(=N)N)NC(=O)OCc1ccccc1)C(=O)Nc1ccc([N+](=O)[O-])cc1 [Example 1, N^α --Z--D--Arg--Gly--Arg--pNA.2HCl] (Cbz-[dR]-Gly-Arg-pNA)
FXa human
  Km: 380 µM
Thrombin bovine; [18]
  Km: 130 µM

## Bz--Ile--Glu--(γ--OR)--Gly--ARg--pNA.HCl [Example S-2222]
FXa human
  Km: 1970 µM
FXa human; [19]
  Vmax: 46 µmol/L/min
  Vmax /Km: 0.023 min⁻¹
Thrombin bovine; Kcat/Km FXa bovine divided by Kcat/Km thrombin bovine
  ratio for the selectivity constant FXa bovine through thrombin: 19.4
Thrombin bovine; [18]
  Km: 710 µM
  Kcat: 13 sek^-1
Thrombin bovine; Thrombin bovine, trisbuffer pH 8.3, I=0.25, 37° C.
  Kcat /Km: 0.018 1/μmol · sek
FXa bovine; FXa bovine E0=4 nmol/l (pNA-substrate) or 2 nmol/l (AMC-substrate), substrate 0.01-0.4 mmol/l, trisbuffer 0.05 mol/l, pH 8.3, I=0.25, 37° C.
  Km: 510 µM
FXa bovine; FXa bovine E0=4 nmol/l (pNA-substrate) or 2 nmol/l (AMC-substrate), trisbuffer pH 8.3, I=0.25, 37° C.
  Kcat: 180 sek^-1
FXa bovine; FXa bovine, trisbuffer pH 8.3, I=0.25, 37° C.
  Kcat /Km (selectivity constant): 0.35 l/μmol · sek

## COc1ccc(COC(=O)N[C@H](CCCNC(=N)N)C(=O)NCC(=O)N[C@@H](CCCNC(=N)N)C(=O)Nc2ccc([N+](=O)[O-])cc2)cc1 [Example 9, N^α --Moz--D--Arg--Gly--Arg--pNA.2HCl]
FXa human
  Km: 210 µM
Thrombin bovine; [18]
  Km: 73 µM

## CC(C)C[C@@H](NS(C)(=O)=O)C(=O)NCC(=O)N[C@@H](CCCNC(=N)N)C(=O)Nc1ccc([N+](=O)[O-])cc1 [CBS 31.39, CH3 SO2 --D--Leu--Gly--Arg--pNA.AcOH] (Ms-[dL]-Gly-Arg-pNA)
FXa human
  Km: 1060 µM
Thrombin bovine; [18]
  Km: 230 µM

B1: FXa bovine (Bos taurus) (protein)
chain: IVGGRDCAEGECPWQALLVNEENEGFCGGTILNEFYVLTAAHCLHQAKRFTVRVGDRNTEQEEGNEMAHEVEMTVKHSRFVKETYDFDIAVLRLKTPIRFRRNVAPACLPEKDWAEATLMTQKTGIVSGFGRTHEKGRLSSTLKMLEVPYVDRSTCKLSSSFTITPNMFCAGYDTQPEDACQGDSGGPHVTRFKDTYFVTGIVSWGEGCARKGKFGVYTKVSNFLKWIDKIMKARAGAAGSRGHSEAPATWTVPPPLPL
[1]
  Km: 220 µM
  kcat: 180 sek^-1
  kcat/Km: 0.82 l/μmol · sek
[2]
  Km: 290 µM
[3]
  Km: 160 µM
  kcat: 225 sek^-1
  kcat/Km: 1.41 l/μmol · sek
[4]
  Km: 190 µM
[5]
  Km: 160 µM
  kcat: 220 sek^-1
  kcat/Km: 1.37 l/μmol · sek
[6]
  Km: 150 µM
[7]
  Km: 200 µM
  kcat: 210 sek^-1
  kcat/Km: 1.05 l/μmol · sek
[8]
  Km: 170 µM
  kcat: 200 sek^-1
  kcat/Km: 1.17 l/μmol · sek
[9]
  Km: 190 µM
  kcat: 170 sek^-1
  kcat/Km: 0.89 l/μmol · sek
[10]
  Km: 220 µM
  kcat: 230 sek^-1
  kcat/Km: 1.04 l/μmol · sek
[11]
  Km: 210 µM
  kcat: 350 sek^-1
  kcat/Km: 1.66 l/μmol · sek
[12]
  Km: 110 µM
[13]
  Km: 40 µM
[14]
  Km: 270 µM
  kcat: 260 sek^-1
  kcat/Km: 0.96 l/μmol · sek
[15]
  Km: 450 µM
  kcat: 245 sek^-1
  kcat/Km: 0.55 l/μmol · sek
[16]
  Km: 120 µM
  kcat: 140 sek^-1
  kcat/Km: 1.14 l/μmol · sek
[17]
  Km: 260 µM
  kcat: 280 sek^-1
  kcat/Km: 1.07 l/μmol · sek
